{"source": "paper PMC11947611", "about": "“Functional and structural characterization of Staphylococcus aureus N‐acetylglucosamine 1‐phosphate uridyltransferase (GlmU) reveals a redox‐sensitive acetyltransferase activity” (Protein Science : A Publication of the Protein Society, 2025)", "proteins": {"B1": {"name": "Staphylococcus aureus N-acetylglucosamine 1-phosphate uridyltransferase (GlmU), wild type (enzyme, Staphylococcus aureus NCTC 8325)", "chain": "MRRHAIILAAGKGTRMKSKKYKVLHEVAGKPMVEHVLESVKGSGVDQVVTIVGHGAESVKGHLGERSLYSFQEEQLGTAHAVQMAKSHLEDKEGTTIVVCGDTPLITKETLVTLIAHHEDANAQATVLSASIQQPYGYGRIVRNASGRLERIVEEKDATQAEKDINEISSGIFAFNNKTLFEKLTQVKNDNAQGEYYLPDVLSLILNDGGIVEVYRTNDVEEIMGVNDRVMLSQAEKAMQRRTNHYHMLNGVTIIDPDSTYIGPDVTIGSDTVIEPGVRINGRTEIGEDVVIGQYSEINNSTIENGACIQQSVVNDASVGANTKVGPFAQLRPGAQLGADVKVGNFVEIKKADLKDGAKVSHLSYIGDAVIGERTNIGCGTITVNYDGENKFKTIVGKDSFVGCNVNLVAPVTIGDDVLVAAGSTITDDVPNDSLAVARARQTTKEGYRK", "notes": "GlmU of Staphylococcus aureus NCTC 8325; the glmU gene was amplified by PCR from genomic DNA; the domains described in the structure span Res. 1-228 (uridyltransferase), 229-251 (linker) and 252-450 (acetyltransferase); Plasmid 6xHis-SaGlmU-pET-16b (NcoI/BamHI); No removal of the tag is described; By intact mass the N-terminal methionine is removed; also called SaGlmU; WT SaGlmU"}}, "molecular_target": "the molecule itself", "experiment": "crystal structure; cocrystals of WT SaGlmU with AcCoA and citrate (PDB 9DQF) and with UTP, CoA and Glc 1-P (PDB 9DR4); reducing conditions, 0.5 mM DTT; 200 mM lithium citrate tribasic tetrahydrate, 15-20% PEG 3350; one monomer in the asymmetric unit, trimer assembly", "data": [{"protein": "B1", "values": [{"measurement": "stoichiometry N", "value": 3}]}]}
